Results as given in publication PMC5328894, “Characterization of a Bacillus thuringiensis chitinase that binds to cellulose and chitin” (AMB Express, 2017).

Substrate: CC(=O)N[C@H]1[C@H](Oc2ccc([N+](=O)[O-])cc2)O[C@H](CO)[C@@H](O[C@@H]2O[C@H](CO)[C@@H](O)[C@H](O)[C@H]2NC(C)=O)[C@@H]1O
Assay: initial-rate hydrolysis, Michaelis-Menten fit
Type: biochemical, Bacillus thuringiensis
Details: 50 mM MES-NaOH, pH 6.0, 50 °C, 0.05-0.8 mM substrate
From the text: initial-rate hydrolysis, Michaelis-Menten fit on BthChi74

B1: BthChi74 (Bacillus thuringiensis serovar israelensis ATCC 35646) (protein)
chain: MAMRSQKFTLLLLSLLLFLPLFLTNFITPNLALADSPKQSQKIVGYFPSWGVYGRNYQVADIDASKLTHLNYAFADICWKGKHGNPSTHPDNPNKQTWNCKESGVPLQNKEVPNGTLVLGEPWADVTKSYPGSGTTWEDCDKYARCGNFGELKRLKAKYPHLKTIISVGGWTWSNRFSDMAADEKTRKVFAESTVAFLRAYGFDGVDLDWEYPGVETIPGGSYRPEDKQNFTLLLQDVRNALNKAGAEDGKQYLLTIASGASQRYADHTELKKISQILDWINIMTYDFHGGWEATSNHNAALYKDPNDPAANTNFYVDGAIDVYTNEGVPVDKLVLGVPFYGRGWKSCGKENNGQYQPCKPGSDGKLASKGTWDDYSTGDTGVYDYGDLTANYVNKNGFVRYWNDTAKVPYLYNATTGTFISYDDNESMKYKTDYIKTKGLSGAMFWELSGDCRTSPKYSCSGPKLLDTLVKELLGGPINQKDTEPPTNVKNIIVTNKTSSSVQLSWTASTDNVGVTEYEITAGEEKWSATTNSITIKNLKPNTEYTFSVIAKDASGNKSHPTALTVKTDEANTTPPDGNGTATFSVTSNWGSGYNFSIIIKNNGTIPIKNWKLEFDYSGNLTQVWDSKISSKTNNHYVITNAGWNGEIPPGGSITIGGAGTGNPAELLNAVISEN
notes: GH18 catalytic domain + FNIII + CBM2; pET21d(+), E. coli BL21(DE3); vector-derived additions at N- and C-termini, C-terminal His6 designed but probably lost by processing; expected 76 kDa, 74 kDa on SDS-PAGE
Km: 159 ± 0.5 µM | kcat: 1.5 ± 0.02 s⁻¹ | kcat/Km: 10000 M⁻¹ s⁻¹
